Patent US20200048348A1 (TENEOBIO, published 2020)

B1: SEQ ID NO 10 (antibody, IgG1, V domains shown)
VH: EVQLVESGGGLVQPGRSLRLSCAASGFTFDNYAMHWVRQAPGKGLEWVSGISWNSGSIGYADSVKGRFTISRDNAKNSLYLQMNSLRAEDTALYYCAKDSRGYGDYSRGGAYWGQGTLVTVSS
VL: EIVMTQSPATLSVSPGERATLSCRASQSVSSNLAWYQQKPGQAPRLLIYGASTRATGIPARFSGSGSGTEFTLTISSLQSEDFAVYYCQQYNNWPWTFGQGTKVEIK
notes: also called FlicAb
B2: SEQ ID NO 6 (antibody, IgG1, V domains shown)
VH: EVQLVESGGGLVQPGRSLRLSCAASGFTFANYAMHWVRQAPGKGLEWVSGISWNSGSIDYADSVKGRFTISRDNAKNSLYLQMNSLRAEDTALYYCAKDSRGYGDYSRGGAYWGQGTLVTVSS
VL: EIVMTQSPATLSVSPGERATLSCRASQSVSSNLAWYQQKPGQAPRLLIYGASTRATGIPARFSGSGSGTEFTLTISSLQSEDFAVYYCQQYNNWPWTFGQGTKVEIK
notes: also called FlicAb
B3: SEQ ID NO 13 (antibody, IgG1, V domains shown)
VH: EVQLVESGGGLVQPGRSLRLSCAASGFTFHNYAMHWVRQAPGKGLEWVSGISWNSGSIGYADSVKGRFTISRDNAKNSLYLQMNSLRAEDTALYYCAKDSRGYGDYSLGGAYWGQGTLVTVSS
VL: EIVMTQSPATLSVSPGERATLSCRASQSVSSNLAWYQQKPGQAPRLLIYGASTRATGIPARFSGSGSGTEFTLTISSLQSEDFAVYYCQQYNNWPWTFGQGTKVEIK
notes: also called FlicAb
B4: SEQ ID NO 7 (antibody, IgG1, V domains shown)
VH: EVQLVESGGGLVQPGRSLRLSCAASGFTFNNYAMHWVRQAPGKGLEWVSGISWNSGSIGYADSVKGRFTISRDNAKNSLYLQMNSLRGEDTALYYCAKDSRGYGDYSRGGAYWGQGTLVTVSS
VL: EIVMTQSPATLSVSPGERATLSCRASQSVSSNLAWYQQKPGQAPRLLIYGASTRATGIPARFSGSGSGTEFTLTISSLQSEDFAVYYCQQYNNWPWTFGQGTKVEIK
notes: also called FlicAb
B5: SEQ ID NO 1 (antibody, IgG1, V domains shown)
VH: EVQLVESGGGLVQPGRSLRLSCAASGFTFDDYAMHWVRQAPGKGLEWVSGISWNSGSIGYADSVKGRFTISRDNAKNSLYLQMNSLRAEDTALYYCAKDSRGYGDYRLGGAYWGQGTLVTVSS
VL: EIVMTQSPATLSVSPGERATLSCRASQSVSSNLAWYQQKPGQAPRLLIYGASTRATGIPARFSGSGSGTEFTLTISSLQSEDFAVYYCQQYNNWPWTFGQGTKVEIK
notes: also called FlicAb

The binders below were run against human CD3 (human, UniProt P07766 23-207; P04234 22-171) (assay: flow cytometry, parental monospecific anti-CD3 on Jurkat cells; antibody concentration not given).
Sequence of human CD3 (P07766 23-207, one chain of several): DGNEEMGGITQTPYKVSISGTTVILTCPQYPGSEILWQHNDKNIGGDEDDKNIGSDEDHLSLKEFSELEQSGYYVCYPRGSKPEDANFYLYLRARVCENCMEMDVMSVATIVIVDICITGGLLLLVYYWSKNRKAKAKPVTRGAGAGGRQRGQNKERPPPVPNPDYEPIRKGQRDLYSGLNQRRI
With B1 the “Jurkat cell bind (MFI)” value was 30.5 MFI. B2 was tested, and the “Jurkat cell bind (MFI)” value was 32.7 MFI. With B3 the “Jurkat cell bind (MFI)” value was 21.4 MFI. In the case of B4, the “Jurkat cell bind (MFI)” value is reported as 32.4 MFI. For B5, the “Jurkat cell bind (MFI)” value was 6.1 MFI.
